The target in assay [1] is Bam35 P26 (transglycosylase and integral membrane scaffolding, suggested), bait pBN_26 (Bacillus virus Bam35). The assay is described as follows: two-hybrid.
For assay [2], the target named is Bam35 P22 (special vertex, suggested), bait pBN_22 (Bacillus virus Bam35). The experiment in a line: two-hybrid; pairwise Y2H: Bam35 ORF baits (pBC or pBN) against full-length HER1410 ORF preys (pPC or pPN); HIS3 reporter, -LWH with 0, 0.025, 0.1, 3, 10, 25, 50 and 100 mM 3AT; positive when growth was higher than in the self-activation controls with the empty vectors.

Assay [3] has as its target Bam35 P19t (P19 without its predicted transmembrane domain), bait pBN_19t (Bacillus virus Bam35). The assay is described as follows: two-hybrid.

The substance “B. thuringiensis HER1410 protein of locus 16200, full length, prey pPC_(16200) (natural protein)” registered a Max. 3AT (mM) (B35ORF BtORF) in assay [1] of 3 mM. In assay [2], “B. thuringiensis HER1410 YadS, full length, prey pPC_yadS(28175) (natural protein)” yielded a Max. 3AT (mM) (B35ORF BtORF) of 50 mM. As to “B. thuringiensis HER1410 OmpR, full length, prey pPC_ompR(22050) (natural protein)”, the other in assay [3] was 100 mM.

The values are drawn from PMC8539640.
